Results on four molecules are retold here after patent US20200179430A1, “USE OF P2Y1 RECEPTOR AND ANTAGONIST THEREOF IN PREVENTION AND TREATMENT OF DEPRESSION AND/OR ANXIETY DISORDER” (SOUTHERN MEDICAL UNIVERSITY, priority 2017, published 2020).

“Also recorded” adds a separate entry of the source.

Data set [1] addresses T1, P2Y1 receptor (Mus musculus, UniProt P49650).
T1 construct: from tissue; host or cells: living C57BL/6J mice; brain (lateral ventricle administration, ventral tegmental area) or systemic (intraperitoneal)
The experiment in a line: Forced swimming test (FST) in C57BL/6J mice. In kind it is in vivo. As to conditions: for anti-depression like behavior (immobility time of swimming within the last 4 minutes): MRS2500 2.5 mg/kg intraperitoneally, FST 30 minutes later, 6 minutes; for immobility time of swimming: lateral ventricle administration, MRS2500 0.1 μM, MRS2179 0.2 μM, 1 μL, vs artificial cerebrospinal fluid control, FIG. 2; for immobility time during the forced swimming test: 0.5 μL shRNA adeno-associated virus at ventral tegmental area, 14 days after injection, vs control virus. How it is done:
Forced swimming test which was proposed by Porsolt in 1977 was applied to the rats at the earliest, and subsequently extended to the mice. The forced swimming test is used to screening for antidepressants which are found to decrease immobility time of the forced swimming mice, and such model is one of the most common-used models for screening for antidepressants at present. The test steps are as follows: experimental mice adapted in an ethology laboratory for at least 60 minutes in advance, and the following test was carried out: an individual mouse was put in a cylinder glass jar (height: 45 cm; diameter: 19 cm) with a water depth of 23 cm at water temperature of 22° C.-25° C., and was subjected to the forced swimming for 6 minutes. Accumulative immobility time within the last 4 minutes was recorded (mainly behaves as stopping struggling, floating upright, or having only small limb movements to keep the head emerge from the water) as an index of tested depression-like behavior. Effect of the antidepressant can shorten the immobility time of the experimental mice.
Experimental animals: C57BL/6J mice, grade SPF, male, body weight of 20 to 24 g. The animals were provided by the Laboratory Animal Center of Southern Medical University (Guangzhou, China). The mice were put in the SPF grade animal feeding room for feeding in separate cages, with 3 to 4 mice in each cage. The plastic cage has a size of 300 mm×170 mm×120 mm. Room temperature: 24±1° C., light-dark cycle: 12 hours/12 hours, illumination time: 7:00 a.m. to 7:00 p.m., relative humidity: 70% to 85%. The indoor environment was kept quiet and the mice could eat and drink freely. The tests were carried out at 1:00 to 5:00 in the afternoon. Before the test, the mice entered the experimental environment in advance for adaptation and were touched by the experimental personnel for adaptation.
In the forced swimming test of the C57BL/6J mice, the animals were divided into 5 groups randomly with 10 mice in each group. The animals in each group were surgically implanted with a medical perfusion tube at the lateral ventricle and fed for seven days for recovery. Then, four groups of animals were subjected to the following treatment respectively: by using a microdose drug delivery system, administering the corresponding reagent: a control solution (artificial cerebrospinal fluid, 1 μL, 1 μL/min), MRS2500 (0.1 μM, 1 μL, 1 μL/min), MRS2179 (0.2 μM, 1 μL, 1 μL/min). After the injection for each group was completed, the forced swimming test was carried out 10 minutes later.
2.5 mg/kg MRS2500 was intraperitoneally administered to the mice, and 30 minutes later, the mice were subjected to the forced swimming test for 6 minutes. Immobility time of swimming within the last 4 minutes was determined to evaluate the effect of the antidepressant.
Test method: the animal in each group was micro-injected with 0.5 μL of interfering RNA adeno-associated virus (shRNA) at the ventral tegmental area (angle: 7°, AP: −3.2 mm, ML: 1.0 mm, DV: −4.6 mm) (0.1 μL/min, remaining the needle for 5 minutes after injection), fed for 14 days and subjected to a forced swimming test after the expression recovery of virus. Titer of the P2Y1 specific-interfering shRNA is 1×10^13 v.g/ml, 9.55E+08 copy/μL. Adeno-associated virus type 9 was used to package the virus, with the promoter being U6 and the serotype being AAV9 (packaged by Biowit Company, Shenzhen, China). Sequence information: the forward sequence is shown as SEQ ID NO:1; and the reverse sequence is shown as SEQ ID NO:2.

For data set [2], the target named is T1, P2Y1 receptor. Briefly: Chronic social defeat stress model, social interaction test. In kind it is in vivo, mice. As to conditions: for duration at the interaction area, social interaction test: chronic social defeat stress depressed mice, 14 days after injection of shRNA virus, FIG. 9. How it is done: The chronic social defeat stress model was carried out referring to the Golden method.
The C57BL/6J mice were randomly divided into a control group and a stress group. The C57BL/6J mouse in the stress group was daily put in a cage with a screened CD-1 mouse therein, for 10-minute body contact. As an invader, the C57BL/6J mouse behaved as escape, fear, obedience and the like after being attacked. After the contact, within the 24 hours after they were separated by a transparent and perforate partition, the C57BL/6J mouse could smell, see and hear the CD-1 mouse at the opposite side for mental stress. The C57BL/6J mice took turns daily to guarantee to be subjected to even stress. The test was continued for ten days. The CD-1 mouse in the control group was replaced by another C57BL/6J mouse, and took turns daily, but body contact was avoided. After modeling, the mice were fed in separate cages and were subjected to tube-implant surgery at the lateral ventricle. The control group and the test group were administered the corresponding reagent respectively: a control solution (artificial cerebrospinal fluid, 1 μL, 1 μL/min), MRS2500 (0.1 μM, 1 μL, 1 μL/min). After administration, depression level of the mice was tested by a social interaction test. The social interaction test was divided into two stages, 2.5 minutes for each stage. First stage (no target): the CD-1 mouse was not put in a transparent and perforate organic glass box; the C57BL/6J mice were put at the distal side, and dwell durations thereof at the interaction area and at the corner within 2.5 minutes were recorded. Second stage (target): the CD-1 mouse was put in the transparent and perforate organic glass box; the C57BL/6J mice were put at the distal side, and dwell durations thereof at the interaction area and at the corner within 2.5 minutes were recorded.
Experimental animals: C57BL/6J mice, grade SPF, male, body weight of 20 to 24 g. The animals were provided by the Laboratory Animal Center of Southern Medical University (Guangzhou, China). […]

For data set [3], the target named is T1, P2Y1 receptor. Briefly: Forced swimming test of mice modeled by chronic social defeat stress model. The format is in vivo. As to conditions: chronic social defeat stress depressed mice, 14 days after injection of shRNA virus, FIG. 10. On the procedure:
Forced swimming test which was proposed by Porsolt in 1977 was applied to the rats at the earliest, and subsequently extended to the mice. The forced swimming test is used to screening for antidepressants which are found to decrease immobility time of the forced swimming mice, and such model is one of the most common-used models for screening for antidepressants at present. […] Accumulative immobility time within the last 4 minutes was recorded (mainly behaves as stopping struggling, floating upright, or having only small limb movements to keep the head emerge from the water) as an index of tested depression-like behavior. […]
The C57BL/6J mice were randomly divided into a control group and a stress group. […] First stage (no target): the CD-1 mouse was not put in a transparent and perforate organic glass box; the C57BL/6J mice were put at the distal side, and dwell durations thereof at the interaction area and at the corner within 2.5 minutes were recorded. Second stage (target): the CD-1 mouse was put in the transparent and perforate organic glass box; the C57BL/6J mice were put at the distal side, and dwell durations thereof at the interaction area and at the corner within 2.5 minutes were recorded. […]

The target of data set [4] is T1, P2Y1 receptor. The experiment in a line: Sucrose preference test of mice modeled by chronic social defeat stress model. In kind it is in vivo. As to conditions: chronic social defeat stress depressed mice; 14 days after injection of shRNA virus; FIG. 11.
For data set [5], the system named is P2Y1 receptor. The experiment in a line: Expression of P2Y1 receptor after intracerebral injection of interfering RNA adeno-associated virus. In kind it is in vivo. As to conditions: mice injected at ventral tegmental area; vs control group mice. On the procedure:
In order to further verify whether the P2Y1 receptor can be used as a target of anti-depression and/or anti-anxiety, and to avoid the compensatory effect that may exist in the conventional knockout mice, P2Y1 receptor specifically-interfering adeno-associated virus was prepared in the present invention to be observed whether the virus affects the depression-like behavior. The mice were intracerebrally injected with a trace amount of the P2Y1 receptor-interfering RNA adeno-associated virus at the ventral tegmental area, and then a forced swimming test was carried out. […] The inventors further used a depression model, chronic social defeat stress model to verify the effect of the P2Y1 receptor specifically-interfering adeno-associated virus. After modeling of the depression model was completed, the mice took a day off, and then were administered the P2Y1 receptor specifically-interfering adeno-associated virus, and two weeks later the mice were subjected to a behavior test. […] In the sucrose preference test, a decreased sucrose preference of the social failure depressed mice was reversed (as shown in FIG. 11). […]

The mark [6] stands for this setting: listed as P2Y1 receptor specifically-interfering adeno-associated virus.

T1 sequence (P49650 whole entry): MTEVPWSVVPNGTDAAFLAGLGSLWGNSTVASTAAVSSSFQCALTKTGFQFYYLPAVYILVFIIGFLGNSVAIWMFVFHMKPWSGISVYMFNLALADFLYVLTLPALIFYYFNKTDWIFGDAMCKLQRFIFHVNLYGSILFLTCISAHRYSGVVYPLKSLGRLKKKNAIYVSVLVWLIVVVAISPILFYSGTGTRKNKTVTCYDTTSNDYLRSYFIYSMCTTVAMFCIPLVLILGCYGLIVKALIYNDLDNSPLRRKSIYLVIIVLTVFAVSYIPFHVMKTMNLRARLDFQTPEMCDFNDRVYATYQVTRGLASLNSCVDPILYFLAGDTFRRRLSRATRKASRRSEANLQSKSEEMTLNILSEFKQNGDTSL

In the case of `CNCCC(Oc1ccc(C(F)(F)F)cc1)c1ccccc1` (stereo not shown) [Fluoxetine], the “anti-depression like behavior (immobility time of swimming within the last 4 minutes)” value on P2Y1 receptor [1] (FIG. 1) is “anti-depression like behavior”.
For the molecule `CNc1ncnc2c1ncn2[C@H]1C[C@H](OP(=O)(O)O)[C@@H](COP(=O)(O)O)O1` [MRS2179], at P2Y1 receptor [1], the “immobility time of swimming” value is given as “significantly reduce the immobility time; also recorded: significantly shorten the immobility time of swimming”.
`CNc1nc(I)nc2c1ncn2[C@H]1C[C@H](OP(=O)(O)O)[C@]2(COP(=O)(O)O)C[C@H]12` [MRS2500]: at P2Y1 receptor [1] (FIG. 1, 2.5 mg/kg), the “anti-depression like behavior (immobility time of swimming within the last 4 minutes)” value is on record as “shows the same anti-depression like behavior as administration of the conventional antidepressant Fluoxetine”. Also, the “immobility time of swimming” value on P2Y1 receptor [1] is “significantly reduce the immobility time; also recorded: significantly shorten the immobility time of swimming”. Also, the “dwell duration at the interaction area (depressive situation)” value at P2Y1 receptor [2] (chronic social defeat stress C57BL/6J mice, single dose MRS2500 0.1 μM, 1 μL, lateral ventricle, FIG. 3) was “significantly improved; also recorded: can improve the dwell duration at the interaction area”.

B1: P2Y1-shRNA: P2Y1 specific-interfering shRNA packaged in adeno-associated virus type 9, U6 promoter; sequences SEQ ID NO:1 and SEQ ID NO:2 (nucleic acid)
chain 1: GATCCCCAGCCCTCATCTTCTACTACTTCATTCAAGAGATGAAGTAGTAGAAGATGAGGGCTGGTTTTTTAGATCTA
chain 2: AGCTTAGATCTAAAAAACCAGCCCTCATCTTCTACTACTTCATCTCTTGAATGAAGTAGTAGAAGATGAGGGCTGGG
With B1, the “immobility time during the forced swimming test” value with P2Y1 receptor [1] (FIG. 8) was “significantly reduced immobility time”; in the data set with P2Y1 receptor [1] (FIG. 8, listed as P2Y1 receptor-interfering RNA) it was “obviously decreased immobility time”. For the same molecule, the “duration at the interaction area, social interaction test” value with P2Y1 receptor [2] is listed as “enhance the duration at the interaction area”; with P2Y1 receptor [2] (setting [6]), “situation of the social defeat depressed mice was reversed”. Also, the “immobility time, forced swimming test” value is recorded as “reduce the increased immobility time” with P2Y1 receptor [3] and “returned to the level of the control group” in the data set with P2Y1 receptor [3] (setting [6]). In addition, in the data set with P2Y1 receptor [4], the sucrose preference entry is listed as “enhance the decreased sucrose preference”. The “expression of P2Y1 receptor” value in the data set on P2Y1 receptor [5] is “significantly decreased the expression of P2Y1 receptor”.
